Laboratory results reported in paper PMC6923396.

What was measured:
[1] = target: p62-UBA K420Q (for NMR) (mouse) (UniProt Q64337); test: NMR dilution series (1H-15N HSQC peak volumes of monomer and dimer); 15N-labeled p62-UBA diluted from 500 to 20 µM; 298 K, pH 6.0, 20 mM sodium acetate, 100 mM NaCl; dimer to monomers
[2] = target: p62-UBA K435Q (for NMR) (mouse) (UniProt Q64337); test: as above

| Kd [1] [µM] | Kd [2] [µM] | Substance |
| --- | --- | --- |
| 41.2 | – | p62-UBA K420Q (for NMR) (from UniProt Q64337-1 391-436) (domain or fragment) |
| – | 15.5 | p62-UBA K435Q (for NMR) (from UniProt Q64337-1 391-437) (domain or fragment) |
